The results in this text go back to paper PMC5885637 (Journal of molecular biology, 2014).

The test addresses wild-type mouse PrP (residues 23-231) displayed on the yeast surface (Mus musculus, UniProt P04925). Nature of the test: flow cytometry on cells.

wild-type mouse PrP (residues 23-231) displayed on the yeast surface, sequence (P04925 23-231): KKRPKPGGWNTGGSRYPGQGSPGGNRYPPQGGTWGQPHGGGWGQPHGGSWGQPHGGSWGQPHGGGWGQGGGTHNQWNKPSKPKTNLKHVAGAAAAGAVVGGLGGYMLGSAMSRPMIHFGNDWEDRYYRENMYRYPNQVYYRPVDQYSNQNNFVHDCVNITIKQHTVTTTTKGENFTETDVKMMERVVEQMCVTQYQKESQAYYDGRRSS

B1: ICSM18-scFv (scFv, V domains shown)
VH: EVQLQQSGPELVKPGSSVKISCKASRNTFTDYNLDWVKQSHGKTLEWIGNVYPNNGVTGYNQKFRGKATLTVDKSSSTAYMELHSLTSEDSAVYYCALYYYDVSYWGQGTLVTVSS
VL: QIVLTQSPAIMSASPGEKVTMTCSASSSVSYMHWYQQKSGTSPKRWIYDTSKLASGVPARFSGSGSGTSYSLTISSMEAEDAATYFCHQWRSNPYTFGGGTKLEIK
Take B1: the Kd was 153 nM. This counts as sub-micromolar.
